According to patent publication US20240254229A1 (Molecular Partners, published 2024):
One block for each binder: values may come before it.

Legend:
[1] = biological target: T1, human scCD3εγ (scCD3εγ_Avi-Bio) (human, biotin on the C-terminal Avi-tag (in vitro, BirA) where the biotinylated form was used); experiment: ribosome display selection, crude extract HTRF
T1 construct: Used for all SPR and HTRF results on human CD3; also called recombinant human CD3; human CD3
T1 chain: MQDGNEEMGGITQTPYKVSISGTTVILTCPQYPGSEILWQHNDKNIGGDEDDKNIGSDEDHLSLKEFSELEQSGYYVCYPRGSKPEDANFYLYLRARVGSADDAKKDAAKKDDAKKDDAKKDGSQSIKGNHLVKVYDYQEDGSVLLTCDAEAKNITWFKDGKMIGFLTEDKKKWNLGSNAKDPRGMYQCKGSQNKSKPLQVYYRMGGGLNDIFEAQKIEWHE

[2] = biological target: T2, biotinylated extracellular domain of human CD33 (SEQ ID NO: 87), Fc and Avi tagged (human, UniProt P20138 18-259, biotinylated with BirA-GST (Avi tag)); experiment: crude extract HTRF, 12 nM biotinylated hCD33
T2 construct: also called hCD33; human target hCD33
T2 sequence (P20138 18-259 R69G): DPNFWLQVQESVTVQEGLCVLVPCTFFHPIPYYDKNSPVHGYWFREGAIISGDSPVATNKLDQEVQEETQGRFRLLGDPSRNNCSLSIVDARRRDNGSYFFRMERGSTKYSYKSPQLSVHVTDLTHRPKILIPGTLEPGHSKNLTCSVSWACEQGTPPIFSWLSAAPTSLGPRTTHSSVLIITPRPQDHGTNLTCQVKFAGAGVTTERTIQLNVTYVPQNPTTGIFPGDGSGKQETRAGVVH
Method: The extract of each lysed clone was applied as a 1:900 dilution (final concentration) in PBSTB (PBS supplemented with 0.1% Tween 20® and 0.2% (w/v) BSA, pH 7.4) together with 12 nM (final concentration) biotinylated hCD33, 1:200 (final concentration) of anti-strep-D2 HTRF antibody-FRET acceptor conjugate (Cisbio) and 1:200 (final concentration) of anti-6His-Tb antibody FRET donor conjugate (Cisbio) to a well of 384 well plate and incubated for 90 minutes at RT. The HTRF was read-out on a Tecan M1000 using a 340 nm excitation wavelength and a 665±10 nm emission filter. […] An amino acid sequence of a selected ankyrin repeat domain that specifically bind to hCD33 are provided in SEQ ID NO: 15.

[3] = biological target: T3, extracellular domain of human CD70 (SEQ ID NO: 89), hCD70-Fc-trimer, ACRO Biosystems (human, UniProt P32970 52-193, chemically biotinylated where the biotinylated form was used); experiment: SPR (ProteOn XPR36), target on GLC chip
T3 construct: also called human CD70-Fc-trimer; Bio.CD70
T3 sequence: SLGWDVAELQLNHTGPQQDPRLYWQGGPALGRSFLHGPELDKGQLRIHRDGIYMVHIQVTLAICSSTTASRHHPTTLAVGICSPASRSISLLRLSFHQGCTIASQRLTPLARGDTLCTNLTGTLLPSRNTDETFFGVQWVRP

human serum albumin = biological target: T4, human serum albumin (human, UniProt P02768 25-609); experiment: SPR (ProteOn XPR36), target on GLC chip
T4 construct: also called HSA; SA
T4 sequence (P02768 25-609 limits assumed): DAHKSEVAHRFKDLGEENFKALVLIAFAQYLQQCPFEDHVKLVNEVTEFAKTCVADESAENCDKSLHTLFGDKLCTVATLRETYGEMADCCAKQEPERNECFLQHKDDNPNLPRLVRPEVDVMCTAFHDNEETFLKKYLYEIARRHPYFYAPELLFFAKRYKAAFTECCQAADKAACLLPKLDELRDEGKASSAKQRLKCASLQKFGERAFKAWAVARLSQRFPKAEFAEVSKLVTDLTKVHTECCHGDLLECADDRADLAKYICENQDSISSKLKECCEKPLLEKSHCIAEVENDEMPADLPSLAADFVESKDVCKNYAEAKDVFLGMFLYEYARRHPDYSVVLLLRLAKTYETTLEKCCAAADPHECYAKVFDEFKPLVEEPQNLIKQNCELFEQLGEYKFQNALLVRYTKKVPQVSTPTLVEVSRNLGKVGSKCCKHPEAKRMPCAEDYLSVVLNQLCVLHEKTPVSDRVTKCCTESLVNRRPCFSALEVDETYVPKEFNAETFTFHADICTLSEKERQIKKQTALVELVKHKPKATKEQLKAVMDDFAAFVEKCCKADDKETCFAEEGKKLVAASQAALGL

[4] = biological target: T2, biotinylated extracellular domain of …; experiment: SPR (ProteOn XPR36), target on GLC chip
[5] = biological target: T5, biotinylated extracellular domain of human CD123 (SEQ ID NO: 88), Fc and Avi tagged (human, UniProt P26951 19-303, biotinylated with BirA-GST (Avi tag)); experiment: SPR (ProteOn XPR36), target on GLC chip, DARPin as analyte
T5 construct: also called hCD123
T5 sequence: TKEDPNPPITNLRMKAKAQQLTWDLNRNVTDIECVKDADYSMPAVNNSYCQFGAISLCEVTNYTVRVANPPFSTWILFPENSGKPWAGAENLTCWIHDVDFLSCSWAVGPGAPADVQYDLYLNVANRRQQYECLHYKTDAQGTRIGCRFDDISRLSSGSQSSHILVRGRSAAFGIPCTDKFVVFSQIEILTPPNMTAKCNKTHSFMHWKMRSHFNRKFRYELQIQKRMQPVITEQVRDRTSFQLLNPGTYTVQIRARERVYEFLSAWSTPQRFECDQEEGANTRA

[6] = biological target: T6, hCD123 (recombinant, construct not stated) (human, UniProt P26951 19-305, limits assumed); experiment: switchSENSE, CD33 and CD123 on one chip; monophasic
T6 construct: also called CD123 (Ligand 2)
T6 sequence (looked up): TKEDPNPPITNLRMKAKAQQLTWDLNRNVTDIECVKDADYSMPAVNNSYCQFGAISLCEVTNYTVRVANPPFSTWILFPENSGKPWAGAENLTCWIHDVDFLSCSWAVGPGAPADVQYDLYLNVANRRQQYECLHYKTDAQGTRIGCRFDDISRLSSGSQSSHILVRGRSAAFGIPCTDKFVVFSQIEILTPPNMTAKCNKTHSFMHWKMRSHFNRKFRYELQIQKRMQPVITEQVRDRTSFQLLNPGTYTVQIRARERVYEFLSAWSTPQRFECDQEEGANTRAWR
Method: (§1) The designed ankyrin repeat proteins: DARPin® protein #20, DARPin® protein #21, DARPin® protein #22, DARPin® protein #27, DARPin® protein #40 and DARPin® protein #41 were tested in a concentration of 0.16 and 64 nM (in a buffer PE140 containing 10 mM Na2HPO4/NaH2PO4, 140 mM NaCl, 0.05% Tween20, 50 μM EDTA, 50 μM EGTA) for binding against two ligands hCD33 and hCD123, which both were immobilized simultaneously to DNA nanolevers, on the surface, at a pre-defined ratio (2:1, CD33:CD123) and 10% density (100:50) on an ADP-48-1-0 chip, where 100% density 1000 receptors/μm2 (preincubated R1-B48-CD123 and G1-A48-CD33 (100 nM) diluted in cNL-48 (dark)). Briefly the following steps were performed: [0724] Conjugation. Amine coupling of the two ligands (CD33 and CD123) to the DNA nanolever (A48, B48, respectively) and purification of the conjugates using the proFIRE® solution (Dynamic Biosensors GmbH) at 25° C. [0725] Evaluation of all the combined affinity and avidity of all different proteins to both ligands attached on the surface of an ADP chip using a DRX+ instrument (dynamic BIOSENSORS). [0726] Statistical analysis (repeatability from 2 to 5 times) including regeneration of the chip surface every concentration analyzed and long dissociation times and data were fitted using a bi-exponential global fit.

[7] = biological target: T6, hCD123 (recombinant, construct not …); experiment: switchSENSE, hCD33 and hCD123 co-immobilised 2:1; panel headed CD123, column KD1; KD2 printed N.A.
Method: as §1

[8] = biological target: T7, hCD33 (recombinant, construct not stated) (human, UniProt P20138 18-259, limits assumed); experiment: switchSENSE, hCD33 and hCD123 co-immobilised 2:1; panel headed CD33
T7 construct: also called CD33 (Ligand 1)
T7 sequence (P20138 18-259 limits assumed): as the sequence (P20138 18-259 R69G) above, with G52R counted along it
Method: as §1

[9] = biological target: T8, biotinylated extracellular domains of human CD123 (uniprot ID 26951), Fc format (human, UniProt P26951 19-305, biotinylated); experiment: ribosome display selection, crude extract HTRF
T8 construct: extracellular domain
T8 sequence (looked up): T6 sequence (looked up)

[10] = biological target: T5, biotinylated extracellular domain of …; experiment: SPR (ProteOn XPR36), target on GLC chip
[11] = biological target: T3, extracellular domain of human CD70 (SEQ …); experiment: SPR (ProteOn XPR36), target on GLC chip, DARPin as analyte
[12] = biological target: T7, hCD33 (recombinant, construct not …); experiment: switchSENSE, CD33 and CD123 on one chip; monophasic
Method: as §1

[13] = biological target: T6, hCD123 (recombinant, construct not …); experiment: switchSENSE, hCD33 and hCD123 co-immobilised 2:1; panel headed CD123, y axis kon
Method: as §1

[14] = biological target: T7, hCD33 (recombinant, construct not …); experiment: switchSENSE, hCD33 and hCD123 co-immobilised 2:1; panel headed CD33, column KD1; KD2 printed N.A.
Method: as §1

binding result [1]: binds
B1: DARPin® protein #2 (designed binder)
chain: MRGSHHHHHHDLGQKLLEAAWAGQDDEVRELLKAGADVNAKNSRGWTPLHTAAQTGHLEIFEVLLKAGADVNAKDDKGVTPLHLAAALGHLEIVEVLLKAGADVNAQDSWGTTPADLAAKYGHEDIAEVLQKAA
notes: CD3-specific ankyrin repeat domain

binding result [2]: binds
B2: DARPin® protein #15 (designed binder)
chain: DLGDKLLLAATSGQDDEVRILLAAGADVNAKDYDGDTPLHLAADEGHLEIVEVLLKAGADVNAKDYSGSTPLHAAAAYGHLEIVEVLLKAGADVNAQDVFGYTPADLAAYVGHEDIAEVLQKAA
notes: CD33-specific domain; screened as crude extract of a His-tagged clone (vector pMPAG06)

Kd [5]: 8.6 nM
B3: DARPin® protein #34 (designed binder)
chain: DLGKKLLEAALEGQLDEVRELLKAGADVNAKDQEGYTPLHLAAALGHLEIVEVLLKAGADVNAKDSIGRTPLHLAAYKGHLEIVEVLLKAGADVNAQDLLGETPADLAAEQGHQDIAEVLQKAA
notes: CD123-specific ankyrin repeat domain; not shown: N-terminal His-tag
binding result [3]: no binding (tested: 100 nM (highest concentration))
binding result (human serum albumin): no binding (tested: 100 nM (highest concentration))
binding result [4]: no binding (tested: 100 nM (highest concentration))

koff [6]: 0.06 s⁻¹
Kd [7]: 2.2 nM
binding result [8]: no binding
B4: DARPin® protein #21 (designed binder)
chain: DLGKKLLEAARAGQDDEVRILMANGADVNALDWLGHTPLHLAAYEGHLEIVEVLLKNGADVNAIDDNNGFTPLHLAAIDGHLEIVEVLLKNGADVNAQDKFGKTAFDISIDNGNEDLAEILQKAAGSPTPTPTTPTPTPTTPTPTPTGSDLGKKLLEAARAGQDDEVRELLKAGADVNAKDKDGYTPLHLAAREGHLEIVEVLLKAGADVNAKDKDGYTPLHLAAREGHLEIVEVLLKAGADVNAQDKSGKTPADLAADAGHEDIAEVLQKAAGSPTPTPTTPTPTPTTPTPTPTGSDLGQKLLEAAWAGQDDEVRILLAAGADVNAKNSRGWTPLHTAAQTGHLEIFEVLLKAGADVNAKNDKRVTPLHLAAALGHLEIVEVLLKAGADVNARDSWGTTPADLAAKYGHGDIAEVLQKLA
notes: also called αCD123-Ni2C-αCD3

binding result [9]: binds
B5: DARPin® protein #6 (designed binder)
chain: DLGKKLLEAARAGQDDEVRILMANGADVNALDWLGHTPLHLAAYEGHLEIVEVLLKNGADVNAIDDNNGFTPLHLAAIDGHLEIVEVLLKNGADVNAQDKFGKTAFDISIDNGNEDLAEILQKAA
notes: CD123-specific domain

Kd [11]: 0.18 nM
B6: DARPin® protein #33 (designed binder)
chain: DLGYKLLQAAYDGQLDEVRILLKAGADVNAKDSRGQTPLHYAASIGHLEIVEVLLKAGADVNAKDDHGWTPLHLAAWSGHLEIVEVLLKAGADVNAQDQEGTTPADLAAVQGHQDIAEVLQKAA
notes: CD70-specific ankyrin repeat domain; not shown: N-terminal His-tag
binding result (human serum albumin): no binding (tested: 100 nM (highest concentration))
binding result [4]: no binding (tested: 100 nM (highest concentration))
binding result [10]: no binding (tested: 100 nM (highest concentration))

koff [12]: 0.01 s⁻¹
binding result [13]: no binding
Kd [14]: 15 nM
B7: DARPin® protein #22 (designed binder)
chain: DLGKKLLEAARAGQDDEVRELLKAGADVNAKDKDGYTPLHLAAREGHLEIVEVLLKAGADVNAKDKDGYTPLHLAAREGHLEIVEVLLKAGADVNAQDKSGKTPADLAADAGHEDIAEVLQKAAGSPTPTPTTPTPTPTTPTPTPTGSDLGDKLLLAATSGQDDEVRILLAAGADVNAKDYDGDTPLHLAADEGHLEIVEVLLKAGADVNAKDYSGSTPLHAAAAYGHLEIVEVLLKAGADVNAQDVFGYTPADLAAYVGHEDIAEVLQKAAGSPTPTPTTPTPTPTTPTPTPTGSDLGQKLLEAAWAGQDDEVRILLAAGADVNAKNSRGWTPLHTAAQTGHLEIFEVLLKAGADVNAKNDKRVTPLHLAAALGHLEIVEVLLKAGADVNARDSWGTTPADLAAKYGHGDIAEVLQKLA
notes: also called Ni2C-αCD33-αCD3
